Results reported in article PMC10861912, “Viral afterlife: SARS-CoV-2 as a reservoir of immunomimetic peptides that reassemble into proinflammatory supramolecular complexes” (Proceedings of the National Academy of Sciences of the …, 2024).

Experiment: Linear charge density of the peptide
Type: physicochemical

Substance: LL-37: highly cationic human cathelicidin, host antimicrobial peptide
- linear charge density: ~ +1.1 e/nm
